Consider eight molecules from patent US20130323259A1 (Novo Nordisk, published 2013).

Test [1] has as its target hIL-21: human recombinant IL-21, corresponding to residues 30-162 and with an N-terminal Methionine as … (human, UniProt Q9HBE4 30-162). The test can be described thus: HX-MS, 4 µM hIL-21 with 2.4 µM mAb.
Test [2] has as its target T1, human IL-21 (hIL-21 protein; recombinant human IL-21) (human, UniProt Q9HBE4 25-162, limits assumed). The test can be described thus: SPR, Biacore T200, mAb captured by anti-human Fc, hIL-21 as analyte; exp no 2. On the procedure: (§1) Anti-human Fc monoclonal from Biacore human Fc capture kit was immobilized onto flow cells of a CM4 sensor chip according to the manufacturer's instructions. […] The CM4 surface was regenerated after each injection cycle of analyte via two injections of 3M MgCl₂ at 50 μl/min.
(§2) In order to receive kinetic data, such as ka (association rate), kd (dissociation rate) and KD (equilibrium dissociation constant), data analysis was performed using the Biacore T200 evaluation software 1.0.
(In general: SPR reads the build-up and loss of mass on a sensor chip optically.)

Test [3] has as its target T1, human IL-21 (hIL-21 protein; …). Kind of test: SPR, Biacore T200, mAb captured by anti-human Fc, hIL-21 as analyte; exp no 1. As for the experimental part:
as §1, §2

Test [4] shares this target. Kind of test: SPR (Biacore), mAb captured by anti-Fc, hIL-21 as analyte; experiment no 1.
For test [5] the target is unchanged. The test can be described thus: SPR (Biacore), average of experiments.
For test [6] the target is unchanged. Kind of test: cell-based or functional assay.
For test [7] the target is unchanged. Kind of test: SPR, Biacore T200, mAb captured by anti-human Fc, hIL-21 as analyte; exp no 1; Exp no 1, first of the two exp-1 rows for 0005.
The target is the same in test [8]. The test can be described thus: SPR (Biacore), mAb captured by anti-Fc, hIL-21 as analyte; experiment no 2.
The target is the same in test [9]. The test can be described thus: cell-based or functional assay. The source holds these as a separate data set.
The target is the same in test [10]. Kind of test: SPR, Biacore T200, average of two experiments. On the procedure:
as §1, §2

For test [11] the target is unchanged. Kind of test: SPR (Biacore), mAb captured by anti-Fc, hIL-21 as analyte; experiment no 6.

Where a chain is given by its changes, count along the chain named. In names and notes the source's numbering stands. Several values for one entry are separate records, joined by “and”; a condition that tells them apart may be missing. Equal values may be shown once. Where only a bound is given, the exact number is not on record here.

T1 sequence (Q9HBE4 25-162 limits assumed): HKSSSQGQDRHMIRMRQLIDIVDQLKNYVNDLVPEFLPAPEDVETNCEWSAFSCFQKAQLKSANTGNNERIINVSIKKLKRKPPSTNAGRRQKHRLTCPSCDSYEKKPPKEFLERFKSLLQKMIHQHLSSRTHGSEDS
Chain of hIL-21: human recombinant IL-21, corresponding to residues 30-162 and with an N-terminal Methionine as … (Q9HBE4 other isoform, or with tags, fused parts or gaps): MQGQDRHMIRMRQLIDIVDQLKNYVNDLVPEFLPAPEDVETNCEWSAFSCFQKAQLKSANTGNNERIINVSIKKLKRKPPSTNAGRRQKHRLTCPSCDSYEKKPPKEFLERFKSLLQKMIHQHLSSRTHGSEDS

B1: monoclonal antibody NNC 0114-0005 (antibody, human IgG1, kappa, V domains shown)
VH: QVQLVESGGGVVQPGRSLRLSCAASGFTFSSYGMHWVRQAPGKGLEWVAFIWYDGSDKYYADSVKGRFTISRDNSKNTLYLQMNSLRAEDTAVYYCARDGDSSDWYGDYYFGMDVWGQGTTVTVSS
VL: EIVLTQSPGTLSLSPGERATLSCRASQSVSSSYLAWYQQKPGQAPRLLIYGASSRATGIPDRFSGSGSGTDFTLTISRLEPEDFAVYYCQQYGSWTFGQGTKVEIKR
notes: also called NNC114-0005
Usually Kd stands for the free concentration of one partner at which half of the binding sites on the other are occupied at equilibrium, for simple one-to-one binding. One may read the koff as the first-order rate constant of dissociation. Usually kon stands for the second-order rate constant of association. On to B1, for which the “amides protected from exchange in region E93-V98 at 100 sec” value (“amides protected from exchange” for short) in [1] was around 2 amides. Moreover, the Kd was 0.17 pM in [2]; 0.58 pM and 0.72 pM in test [3]; 0.58 pM and 0.72 pM in test [4]; at most 1 pM in test [5]; 0.17 pM in test [8]. The koff in [2] is 1.1e-05 s⁻¹; in [3] it was 9.5e-06 s⁻¹ and 1.1e-05 s⁻¹; in [4] it was 9.5e-06 s⁻¹ and 1.1e-05 s⁻¹; in test [5], 1e-05 s⁻¹; in test [8], 1.1e-05 s⁻¹. Moreover, the kon in test [2] is 6.6e+07 M⁻¹ s⁻¹; in test [3], 1.5e+07 M⁻¹ s⁻¹; in test [4], 1.6e+07 M⁻¹ s⁻¹ and 1.5e+07 M⁻¹ s⁻¹; in test [7], 1.6e+07 M⁻¹ s⁻¹; in test [8], 6.6e+07 M⁻¹ s⁻¹. In addition, in test [6], the “IC50 (nM), B cell proliferation, Donor 1 (0114-0000-0006)” value came to 0.82 nM. In test [6], the “IC50 (nM), B cell proliferation, Donor 2 (0114-0000-0006)” value came out at 0.83 nM. Besides, the “IC50 (nM), B cell proliferation, Donor 3 (0114-0000-0006)” value in test [6] came out at 0.57 nM. The “IC50 (nM), B cell proliferation, Donor 4 (0114-0000-0006)” value in [6] is 1.33 nM.

B2: 0114-0000-0043, light chain R55K variant of mAb 0006 (NNC 0114-0005) (antibody, human IgG1, kappa, V domains shown)
VH: B1 VH
VL: EIVLTQSPGTLSLSPGERATLSCRASQSVSSSYLAWYQQKPGQAPRLLIYGASSKATGIPDRFSGSGSGTDFTLTISRLEPEDFAVYYCQQYGSWTFGQGTKVEIKR
For B2, in [9], the “Bioactivity as % of RM (NCC0114-0000-0006), NK-92 bioassay” value (“Bioactivity as % of RM” for short) was determined as 89.8%. Moreover, in [6], the “IC50 (nM), B cell proliferation, Donor 2” value came out at 0.3 nM and the “IC50 (nM), B cell proliferation, Donor 4” value is 1.35 nM.

B3: 0114-0000-0041, light chain S54A variant of mAb 0006 (NNC 0114-0005) (antibody, human IgG1, kappa, V domains shown)
VH: B1 VH
VL: B2 VL with S54A, K55R
Consider B3, for which, in [1], the “amides protected from exchange” value was around 2 amides. The “Bioactivity as % of RM” value in [9] turned out to be 83.9%. Further, in test [6], the “IC50 (nM), B cell proliferation, Donor 1” value was 1.15 nM and the “IC50 (nM), B cell proliferation, Donor 3” value amounted to 1.12 nM.

B4: 0114-0000-0039, light chain S53A variant of mAb 0006 (NNC 0114-0005) (antibody, human IgG1, kappa, V domains shown)
VH: B1 VH
VL: B2 VL with S53A, K55R
Take B4: the “amides protected from exchange” value in test [1] was around 2 amides. The “Bioactivity as % of RM” value in [9] came out at 95.2%. For the same molecule, in [6], the “IC50 (nM), B cell proliferation, Donor 1” value was 0.78 nM and the “IC50 (nM), B cell proliferation, Donor 3” value was found to be 0.92 nM.

B5: NNC-0114-0044, Light-chain residue 57 Thr to Ser mutated form (L:T57S) of NNC 0114-0005 (antibody, human IgG1, kappa, V domains shown)
VH: B1 VH
VL: B2 VL with K55R, T57S
Take B5: in test [2], the dissociation constant Kd turned out to be 0.24 pM, the off-rate constant (koff) amounted to 1.3e-05 s⁻¹ and the kon stood at 5.4e+07 M⁻¹ s⁻¹. In test [3], the Kd is at most 0.46 pM, the koff was at most 1e-05 s⁻¹ and the association rate constant (kon) came to 2.2e+07 M⁻¹ s⁻¹. Besides, in [9], the “Bioactivity as % of RM” value was 77.8%. In [6], the “IC50 (nM), B cell proliferation, Donor 2” value was determined as 0.8 nM and the “IC50 (nM), B cell proliferation, Donor 4” value was 1.17 nM. In test [10], the Kd was at most 1 pM and the off-rate (koff) was 1e-05 s⁻¹.

B6: NNCD-0114-0000-0038, Heavy-chain residue 31 Ser to Ala mutated form (H:S31A) of NNC 0114-0005 (antibody, human IgG1, kappa, V domains shown)
VH: B1 VH with S31A
VL: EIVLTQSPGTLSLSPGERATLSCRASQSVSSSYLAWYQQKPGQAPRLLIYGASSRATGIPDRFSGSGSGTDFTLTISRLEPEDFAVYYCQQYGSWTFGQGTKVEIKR
As to B6, in test [1], the “amides protected from exchange” value is around 2 amides. In test [2], the Kd came out at 0.09 pM, the koff worked out at 6.8e-06 s⁻¹ and the on-rate (kon) is 7.5e+07 M⁻¹ s⁻¹. Besides, in test [3], the Kd was 0.43 pM and 0.42 pM; the koff was 1.2e-05 s⁻¹ and 1.1e-05 s⁻¹; the kon was found to be 2.7e+07 M⁻¹ s⁻¹. Further, the “Bioactivity as % of RM” value in test [9] was determined as 89.2%. For the same molecule, in test [6], the “IC50 (nM), B cell proliferation, Donor 1” value was 1.18 nM and the “IC50 (nM), B cell proliferation, Donor 3” value amounted to 1.21 nM. In [10], the dissociation constant Kd is at most 1 pM and the koff was 1e-05 s⁻¹.

B7: monoclonal antibody NNC 0114-0015 (antibody, V domains shown)
VH: B1 VH with S31T
VL: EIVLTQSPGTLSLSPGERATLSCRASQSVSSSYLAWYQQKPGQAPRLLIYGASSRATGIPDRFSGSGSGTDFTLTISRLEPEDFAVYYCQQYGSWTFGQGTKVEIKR
notes: also called NNC114-0015
Consider B7, for which, in test [11], the Kd is 0.12 pM and 0.18 pM and 0.28 pM; the koff was 6.8e-06 s⁻¹ and 8.9e-06 s⁻¹ and 1.2e-05 s⁻¹; the kon was 5.5e+07 M⁻¹ s⁻¹ and 4.9e+07 M⁻¹ s⁻¹ and 4.3e+07 M⁻¹ s⁻¹. Further, in [5], the Kd is at most 1 pM and the koff amounted to 1e-05 s⁻¹. In test [6], the “IC50 (nM), B cell proliferation, Donor 1” value stood at 1.23 nM; the “IC50 (nM), B cell proliferation, Donor 2” value turned out to be 0.86 nM; the “IC50 (nM), B cell proliferation, Donor 3” value turned out to be 1.13 nM; the “IC50 (nM), B cell proliferation, Donor 4” value was 0.91 nM.

B8: 0114-0000-0040, light chain S53T variant of mAb 0006 (NNC 0114-0005) (antibody, human IgG1, kappa, V domains shown)
VH: B1 VH
VL: B2 VL with S53T, K55R
In the case of B8, the “amides protected from exchange” value in test [1] was around 2 amides. Also, the “Bioactivity as % of RM” value in [9] came out at 92.9%. Also, in [6], the “IC50 (nM), B cell proliferation, Donor 1” value is 0.93 nM and the “IC50 (nM), B cell proliferation, Donor 3” value was found to be 1 nM.
